Experimental data from the nanobody polyreactivity screen of Harvey et al. (2022).

experiment: yeast display, Sf9 membrane polyspecificity reagent, FACS + sequencing; frameworks hold sequencing errors
Outline: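 Nanobodies came from a synthetic yeast display library in Saccharomyces cerevisiae BJ5465, induced with galactose for 36–48 hours and stained for 1 hour at 4 °C with 10% biotinylated, detergent-solubilized Sf9 membrane reagent. Cells were enriched on streptavidin microbeads and then FACS-sorted, with low and high (top ~1%) gates set on anti-HA fluorescence for expression and streptavidin fluorescence for reagent binding. Each polyreactivity label reflects the gate a clone came from. Genes were amplified by colony PCR, sequenced by MiSeq 2 × 250 and filtered by CDR length.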

Row | Sequence | polyreactivity (PSR sort gate)
1 | QVQLVESGGGLVQAGGSLRLSCASSGRTFTHYAMGWYRQAPGKERELVASISDGGRTHYADSVTGRFTISRDNAKNTVYLQMNSLKPEDTAVYYCATDRYPTRRYDYWGQGTQVTVSS | low polyreactivity
2 | QVQLVESGGGLVQAGGSLRLSCASSGRTFVWNAMGWYRQAPGKERELVAAIDWSGGSTYYADSVKGRFTISRDYAKITVYLQMNSLKPEDTAVYYCAKEYWYRALWYNYWGQGTQVTVSS | high polyreactivity
3 | QVQLVESGGGLVQAGGSLRLSCASSGRTFYQNAMGWYRQAPGKESEFVAAITGGTGSTHYADSVKGRFTISRDNAKNTVYLQMNSLKPEDTAVYYCATRYLFGFSRYDYWGQGTQVTVSS | low polyreactivity
4 | QVQLVESGGGLVQAGGSLRLSCASSGSIFAYNTMGRYRQAPGKERELVAAITGRAGSTYYADSVKGRFTISRDNAKNTFYLQMNSLKPEDTAVYYCAAEYRFAFPLWLDYWGQGTQVTVSS | high polyreactivity
5 | QVQLVESGGGLVQAGGSLRLSCASSGSIFGSYAMGWYRQPPGKESELDAAITGIGGSTYYADSVKGRFTISRDNAKNTVYLQMNSLKPEATAVYYCATRDRYRAPVVGGNYWVQGTQVTVSS | high polyreactivity
6 | QVQLVESGGGLVQAGGSLRLSCASSGSIFKANGMGWYRQAPGKEREFVAAITRSGATTYYADSVKGRFTISRDNAKNTVYLQMNSLKTEDTAVYYCNVKAWRDLYYAGFDYWGQGTQVTVSS | low polyreactivity
7 | QVQLVESGGGLVQAGGSLRLSCASSGSIFLYNAMGWYRQAPGKERELVAVINGRGGTYYADSVKGRFTISRDNAKNTVYLQMNSLKPEDTAVYYCATGFPPSAWYDSVRFEDRDSWGQGTQVTVSS | low polyreactivity
8 | QVQLVESGGGLVQAGGSLRLSCASSGSIININVMGWYRQAPGKERELVAAINSGTSTYYADSVKGRFTFSRDNAKITVYLKMNSLKPEDTAVYYCAARNLFTGRRLFYFWGQGTQVTVSS | low polyreactivity
9 | QVQLVESGGGLVQAGGSLRLSCASSGSKLGINVMGWYRQAPGKERELVAAISRRGGSTNYADSVKGRFTISRDNAKNTVYLQMNSLKPEDTAVYYCNALGHVQGYDYWGQGTQVTVSS | high polyreactivity
10 | QVQLVESGGGLVQAGGSLRLSCASSGSTFEANAMGWSRQAPGKDRELVAAISSRGGSTYYADSVKGRFTISRDNGKNTVYFQRNSLKPEDTAVYYCAALLRSGGEYDYWGQGTQVTVSS | high polyreactivity
11 | QVQLVESGGGLVQAGGSLRLSCASSGSTFGPNDMGWYRQAPGKERELVAAISRSGDDTYYADSVKGRFTISRDNAKNTVYLQMNSLKPEDTAVYYCNADGRPFFLRPLRWELDYWGQGTQVTVSS | low polyreactivity
12 | QVQLVESGGGLVQAGGSLRLSCASSGSTFKVYDMGWSRQAPGKERELVATITWGGGGTYYADSVTGRFTISRDNAKNTVYLLMNSLKPQDTAVYFCAAEVTLYSCYRYWYRYEYWGQGTQVTVSS | high polyreactivity
13 | QVQLVESGGGLVQAGGSLRLSCASSGSTFYSYVMGWYRQAPGKERELVAAITYSGGRTYYADSVKGRFTISRDNEKNTVYFQMYSLKPEDTAVYYCAKRVFNYQRYDYWGQGTQVTVSS | high polyreactivity
14 | QVQLVESGGGLVQAGGSLRLSCASSGSTFYYYAMGWYRPAPGKERELVAAITKSGGSTYYADSVKGRFTISRDNAKNTVYLQMNSLKPEVTAVYYCAAYLRSGYKFDYWGQGTQVTVSS | low polyreactivity
15 | QVQLVESGGGLVQAGGSLRLSCASSGSTLRWYAMGWYRQAPGKERELVARISWTTGSTYYADSVKGRFTISRDNAKNTVYLQMNSLKPEDTAVYYCAKGKKSSRSGIYNYWGQGTQVTVSS | high polyreactivity
16 | QVQLVESGGGLVQAGGSLRLSCASSGSTLYDNAKGWYRPAPGKERELVAAISKSGGRTYYADSVKGRFTISRDNAKNSVYLQMNSLKPEDTAVYYCNDVSSGGDYNYWGQGTQVTVSS | high polyreactivity
17 | QVQLVESGGGLVQAGGSLRLSCASSGSTVSVNAMGWSRQAPGKESEFVASISKRGGSTYYADSVKGRFTISRDNAKNTVYLQMNSLKPEDTAVYYCARVLTGPGRLDYWGQGTQVTVSS | high polyreactivity
